These are literature values, as cited in patent publication US9168216B2, “Carrier comprising one or more di and/or mono-(electron transfer agent) phosphate derivatives or complexes thereof” (priority 2005, dated 2015).

Bounds are passed on as bounds.

For the data set the following is noted: subcutaneous, 25 μg/kg body weight.

Turning to “PTH: human parathyroid hormone (fragment 1-34)”, the “Time of peak PTH level in rat plasma after injection” value was 40 to 60 min and the “Time to complete turnover of PTH in plasma” value is at most 4 h.
